Measurements published in US20240091382A1, “MINIMAL BILE ACID INDUCIBLE PROMOTERS FOR GENE THERAPY” (priority 2020, published 2024).

B1: imPr+3xIR: imPr variant with three extra repeats of the murine IR-1 element (SEQ ID NO: 7) (nucleic acid)
DNA: TTAGGCCATTGACCTATTAGGCCATTGACCTATTAGGCCATTGACCTAGGTTCCTGCTTTGAGTATGTTCGACCTTTCCTCTCATGTCACTGAACTGTGCTAGATCTGGACTTTAGGCCATTGACCTATAAGCAAATAGATAGTGTTCTTAAAAAAGCCTGATTTCTGTTCAATGCTTTATTACCATGAAAACTGAACTTGGAAAGGGGTGTACAACCCTGACTTTCCACAGTGGCGTCTCTCGCTTCTCCTGGCTCCCTCAAATTCACA
modifications: Synthetic imPR+3xIR
B2: imPr+5xIR: imPr variant with five extra repeats of the murine IR-1 element (SEQ ID NO: 19) (nucleic acid)
DNA: TTAGGCCATTGACCTATTAGGCCATTGACCTATTAGGCCATTGACCTATTAGGCCATTGACCTATTAGGCCATTGACCTAGGTTCCTGCTTTGAGTATGTTCGACCTTTCCTCTCATGTCACTGAACTGTGCTAGATCTGGACTTTAGGCCATTGACCTATAAGCAAATAGATAGTGTTCTTAAAAAAGCCTGATTTCTGTTCAATGCTTTATTACCATGAAAACTGAACTTGGAAAGGGGTGTACAACCCTGACTTTCCACAGTGGCGTCTCTCGCTTCTCCTGGCTCCCTCAAATTCACA
modifications: Synthetic imPR+5xIR
B3: imPr+1xIR: imPr variant with one extra repeat of the murine IR-1 element at the 5′end (SEQ ID NO: 6) (nucleic acid)
DNA: TTAGGCCATTGACCTAGGTTCCTGCTTTGAGTATGTTCGACCTTTCCTCTCATGTCACTGAACTGTGCTAGATCTGGACTTTAGGCCATTGACCTATAAGCAAATAGATAGTGTTCTTAAAAAAGCCTGATTTCTGTTCAATGCTTTATTACCATGAAAACTGAACTTGGAAAGGGGTGTACAACCCTGACTTTCCACAGTGGCGTCTCTCGCTTCTCCTGGCTCCCTCAAATTCACA
modifications: Synthetic imPR+1xIR
B4: imPr+LRH-1: slightly longer imPr variant including the upstream LRH-1 element (SEQ ID NO: 21) (nucleic acid)
DNA: TTTCTAAAGCTTGTTGATACCCTCAGAAGGTCCCCACGCACTCTGGGTTTGGGTTCCTGCTTTGAGTATGTTCGACCTTTCCTCTCATGTCACTGAACTGTGCTAGATCTGGACTTTAGGCCATTGACCTATAAGCAAATAGATAGTGTTCTTAAAAAAGCCTGATTTCTGTTCAATGCTTTATTACCATGAAAACTGAACTTGGAAAGGGGTGTACAACCCTGACTTTCCACAGTGGCGTCTCTCGCTTCTCCTGGCTCCCTCAAATTCACA
modifications: Synthetic imPr+ LRH-1
B5: imPr+3xIR-ER2: imPr variant with three repetitions of the IR-1-ER2 element (SEQ ID NO: 20) (nucleic acid)
DNA: TGGACTTTAGGCCATTGACCTATGGACTTTAGGCCATTGACCTATGGACTTTAGGCCATTGACCTAGGTTCCTGCTTTGAGTATGTTCGACCTTTCCTCTCATGTCACTGAACTGTGCTAGATCTGGACTTTAGGCCATTGACCTATAAGCAAATAGATAGTGTTCTTAAAAAAGCCTGATTTCTGTTCAATGCTTTATTACCATGAAAACTGAACTTGGAAAGGGGTGTACAACCCTGACTTTCCACAGTGGCGTCTCTCGCTTCTCCTGGCTCCCTCAAATTCACA
modifications: Synthetic imPr+3xIR-ER2

What follows are molecules tested on Huh-7 cells (assay: Luciferase expression from BSEP-derived promoter plasmids in Huh-7 cells (FXR co-transfection, CDCA induction)). Settings: Huh-7, pCMV-hFXRα2, 30 μM CDCA.
Format: cell-based, human
Procedure: FIG. 2. […] In all cases, cells were also transfected with a Renilla expressing plasmid (pRL-CMV). Luciferase and Renilla expression were measured with a luminometer. All samples were tested in triplicates and data are presented as mean±SEM of relative (rel.) units (Luciferase units sec^−1/Renilla units sec^−1). The fold induction of each condition relative to cells transfected only with the luciferase plasmid (Luc plasmid) is indicated on top of each column. The statistical comparison between these two conditions was performed by using an unpaired […] T test. *, p<0.05; **, p<0.01; ***, p<0.001. imPr and ihPr, pAAV-imPr-LucPEST and pAAV-ihPr-LucPEST, respectively; full length mPr, pAAV-mBSEPpr-LucPEST; full length hPr, p-2563/+4-Luc; A1AT, pAAV-A1AT-LucPEST.
FIG. 18. […] In all cases, cells were also transfected with the same amount of Renilla expressing plasmid (pRL-CMV) to determine the transfection efficiency. Luciferase and Renilla expression were measured with a luminometer. All samples were tested in triplicates and data are presented as mean±SEM of relative (rel.) units (Luciferase units sec^−1/Renilla units sec^−1). The fold induction of each condition relative to cells transfected only with the luciferase plasmid (Luc plasmid) is indicated on top of each column. The statistical comparison between these two conditions was performed by using an unpaired T test. *, p<0.05; **, p<0.01; ***, p<0.001; ****, p<0.0001.
The inventors first tested whether luciferase expression could be induced by bile salts in hepatic cells from human (Huh-7 and HepG2) and mouse origin (Hepa1-6). For this purpose, they transfected confluent monolayers of these cells in 12-well plates with 0.5 μg pAAV-miPr-LucPEST or pAAV-hiPr-LucPEST plasmids, or with the same amount of control plasmids (pAAV-mBSEPpr-LucPEST, p-2563/+4-Luc and pAAV-A1AT-LucPEST), together with 0.5 μg of plasmids expressing either human FXRα1 (pcDNA3.1-hFXRα1, ordered from GenScript) or FXRα2 (pCMV-hFXRα2, ref NR1H4 cDNA Resource Center, Bloomsburg, PA), two isoforms of FXR that can exert different transcriptional regulation). […] Furthermore, to normalize luciferase expression, and correct for differences in transfection efficiencies, the inventors also co-transfected cells with 0.2 μg of a plasmid expressing Renilla-luciferase from a constitutive promoter (pRL-CMV, Promega). All transfections were performed using lipofectamine 2000 (Thermo Fisher). […] After induction, cells were collected and luciferase and Renilla expression were measured in cell extracts using an Orion L Microplate Luminometer.
The inventors tested luciferase expression of plasmids containing the variants of imPr promoter in Huh-7 cells as described above. Briefly, the inventors transfected confluent cell monolayers in 12-well plates with 0.5 μg of each of the corresponding plasmids, using as control pAAV-miPr-LucPEST, together with 0.5 μg of pCMV-hFXRa2 using lipofectamine 2000. To normalize luciferase expression, the inventors co-transfected cells with 0.2 μg of a plasmid expressing Renilla-luciferase from a constitutive promoter (pRL-CMV). […] After induction, cells were collected and luciferase and Renilla expression were measured in cell extracts as described.
In the case of B1, the “level of luciferase expression compared to plasmid containing imPr promoter” value is reported as “significantly higher level of luciferase expression” and the “luciferase expression compared to imPr+1xIR” value is reported as “significantly higher luciferase expression than imPr+1xIR”. In the case of B2, the “level of luciferase expression compared to plasmid containing imPr promoter” value is reported as “not observed”. In the case of B3, the “level of luciferase expression compared to plasmid containing imPr promoter” value is reported as “significantly higher level of luciferase expression”. For B4, the “level of luciferase expression compared to plasmid containing imPr promoter” value was “not observed”. B5 was tested, and the “level of luciferase expression compared to plasmid containing imPr promoter” value was “not observed”.
